In US20200181601A1 (INSTITUT PASTEUR, published 2020):

Legend:
[1] = molecular target: T1, PulD-N, soluble monomeric fragment corresponding to the N-terminal region of PulD from Klebsiella oxytoca (Klebsiella oxytoca, UniProt P15644 28-264); assay: SPR, immobilized biotinylated PulD-N
T1 construct: domain: N-terminal region of PulD; also called N-terminal domain of PulD
T1 sequence: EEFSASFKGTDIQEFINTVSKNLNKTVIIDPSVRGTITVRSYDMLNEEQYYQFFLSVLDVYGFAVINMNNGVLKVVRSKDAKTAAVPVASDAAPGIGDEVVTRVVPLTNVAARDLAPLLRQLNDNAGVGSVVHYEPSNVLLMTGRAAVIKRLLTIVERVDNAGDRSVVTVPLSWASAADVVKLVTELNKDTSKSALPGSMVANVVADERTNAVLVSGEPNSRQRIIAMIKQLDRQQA

[2] = molecular target: T2, full-length PulD, monomeric (Klebsiella oxytoca, UniProt P15644 28-660); assay: cell-based or functional assay
T2 sequence: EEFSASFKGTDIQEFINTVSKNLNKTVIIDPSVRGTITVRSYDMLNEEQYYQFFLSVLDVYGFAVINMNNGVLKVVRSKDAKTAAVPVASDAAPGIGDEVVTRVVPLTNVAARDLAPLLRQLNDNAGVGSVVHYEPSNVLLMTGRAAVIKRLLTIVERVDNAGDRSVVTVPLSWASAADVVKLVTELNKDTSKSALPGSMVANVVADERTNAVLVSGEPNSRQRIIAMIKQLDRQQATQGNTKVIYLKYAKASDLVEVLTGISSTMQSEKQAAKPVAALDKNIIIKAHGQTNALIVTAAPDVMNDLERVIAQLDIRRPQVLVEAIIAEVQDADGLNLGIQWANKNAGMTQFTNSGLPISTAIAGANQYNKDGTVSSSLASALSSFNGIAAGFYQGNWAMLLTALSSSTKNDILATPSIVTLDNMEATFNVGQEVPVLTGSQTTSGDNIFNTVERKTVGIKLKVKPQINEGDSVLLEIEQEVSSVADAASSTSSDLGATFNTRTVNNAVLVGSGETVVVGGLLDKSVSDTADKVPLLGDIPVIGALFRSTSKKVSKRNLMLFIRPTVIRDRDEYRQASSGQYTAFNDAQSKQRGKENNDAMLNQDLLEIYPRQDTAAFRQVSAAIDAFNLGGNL

[3] = molecular target: T3, PulD-CS, PulD variant lacking the N-domain (Klebsiella oxytoca, UniProt P15644 28-660); assay: far-Western immunoblot
T3 construct: domain: PulD variant lacking the N-domain

[4] = molecular target: T1, PulD-N, soluble monomeric fragment …

B1: wild type Sac7d (recombinant) (other)
chain: VKVKFKYKGEEKEVDTSKIKKVWRVGKMVSFTYDDNGKTGRGAVSEKDAPKELLDMLARAEREKK
notes: also called Sac7d wt; wt Sac7d
[1]
  binding result: no binding

B2: Sac7*6-PhoA chimera (binder 6 fused to the N-terminus of E. coli alkaline phosphatase) (designed binder)
chain: RTPEMPVDGTGSVKVKFVLGGEEKEVDTSKIRHVYRYGKHVTFSYDDNGKLGLGLVKEKDAPKELLDMLARAEREKKLRAQPGVLENRAAQGDITAPGGARRLTGDQTAALRDSLSDKPAKNIILLIGDGMGDSEITAARNYAEGAGGFFKGIDALPLTGQYTHYALNKKTGKPDYVTDSAASATAWSTGVKTYNGALGVDIHEKDHPTILEMAKAAGLATGNVSTAELQGATPAALVAHVTSRKCYGPSATSEKCPGNALEKGGKGSITEQLLNARADVTLGGGAKTFAETATAGEWQGKTLREQAQARGYQLVSDAASLNSVTEANQQKPLLGLFADGNMPVRWLGPKATYHGNIDKPAVTCTPNPQRNDSVPTLAQMTDKAIELLSKNEKGFFLQVEGASIDKQGHAANPCGQIGETVDLDEAVQRALEFAKKEGNTLVIVTADHAHASQIVAPDTKAPGLTQALNTKDGAVMVMSYGNSEEDSQEHTGSQLRIAAYGPHAANVVGLTDQTDLFYTMKAALGLK
notes: also called clone 6-alkalin phosphatase fusion; Sac7*-PhoA
[2]
  inhibition of pullulanase secretion, strain PAP5198 pCHAP231, IPTG induced: > 90%
[3]
  binding result: no binding
[4]
  ratio signal/background: > 10

B3: Sac7*33-PhoA chimera (binder 33 fused to the N-terminus of E. coli alkaline phosphatase) (designed binder)
chain: RTPEMPVDGTGSVKVKFTWYGEEKEVDTSKIMSVCRWGKRVAFSYDDNGKIDYGLVDEKDAPKELLDMLARAEREKKLRAQPGVLENRAAQGDITAPGGARRLTGDQTAALRDSLSDKPAKNIILLIGDGMGDSEITAARNYAEGAGGFFKGIDALPLTGQYTHYALNKKTGKPDYVTDSAASATAWSTGVKTYNGALGVDIHEKDHPTILEMAKAAGLATGNVSTAELQGATPAALVAHVTSRKCYGPSATSEKCPGNALEKGGKGSITEQLLNARADVTLGGGAKTFAETATAGEWQGKTLREQAQARGYQLVSDAASLNSVTEANQQKPLLGLFADGNMPVRWLGPKATYHGNIDKPAVTCTPNPQRNDSVPTLAQMTDKAIELLSKNEKGFFLQVEGASIDKQGHAANPCGQIGETVDLDEAVQRALEFAKKEGNTLVIVTADHAHASQIVAPDTKAPGLTQALNTKDGAVMVMSYGNSEEDSQEHTGSQLRIAAYGPHAANVVGLTDQTDLFYTMKAALGLK
[2]
  inhibition of pullulanase secretion, strain PAP5198 pCHAP231, IPTG induced: > 90%
[4]
  ratio signal/background: > 10

B4: Sac7*40-PhoA chimera (binder 40 fused to the N-terminus of E. coli alkaline phosphatase) (designed binder)
chain: RTPEMPVDGTGSVKVKFGEHGEEKEVDTSKIMSVVRFGKWVCFRYDDNGKAGYGAVLEKDAPKELLDMLARAEREKKLRAQPGVLENRAAQGDITAPGGARRLTGDQTAALRDSLSDKPAKNIILLIGDGMGDSEITAARNYAEGAGGFFKGIDALPLTGQYTHYALNKKTGKPDYVTDSAASATAWSTGVKTYNGALGVDIHEKDHPTILEMAKAAGLATGNVSTAELQGATPAALVAHVTSRKCYGPSATSEKCPGNALEKGGKGSITEQLLNARADVTLGGGAKTFAETATAGEWQGKTLREQAQARGYQLVSDAASLNSVTEANQQKPLLGLFADGNMPVRWLGPKATYHGNIDKPAVTCTPNPQRNDSVPTLAQMTDKAIELLSKNEKGFFLQVEGASIDKQGHAANPCGQIGETVDLDEAVQRALEFAKKEGNTLVIVTADHAHASQIVAPDTKAPGLTQALNTKDGAVMVMSYGNSEEDSQEHTGSQLRIAAYGPHAANVVGLTDQTDLFYTMKAALGLK
notes: also called Sac7*-PhoA
[2]
  inhibition of pullulanase secretion, strain PAP5198 pCHAP231, IPTG induced: > 90%
[3]
  binding result: no binding
[4]
  ratio signal/background: > 10
